In the supplement of paper PMC7125110:
± gives the standard error. Variants at the floor of the assay were thinned out.

B1: glmS ribozyme (parent)
chain: AUAAAAGCGCCAGAACUACAGAAAUGUAGUUGACGAGGAGGAGGUUUAUCGAAUUUUCGGCGGAUGCCUCCAAA

Variants of: B1
Experiment: self-cleavage kobs at 2500 uM GlcN6P; higher = faster cleavage; RNA array
Details: with glucosamine-6-phosphate
Procedure, shortened: (§1)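 Weighted Michaelis–Menten fits across concentrations supplied kcat and KM, based on kobs from one- or two-exponential decay fits to normalised per-tile medians. The data came from barcoded ribozyme variants transcribed in situ by E. coli RNA polymerase on sequenced MiSeq chips and tracked at 37 °C by a hybridised Cy3 probe. Glucosamine-6-phosphate (40 μM to 10 mM) in HEPES/KCl/Mg(OAc)2 buffer was flowed in.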

Variant	self-cleavage kobs at 2500 uM GlcN6P [s⁻¹]
G9C C11A G63C	< 1e-05
A6G C16G U54C C61A	< 1e-05
C34G G35C G66A	< 1e-05
A39U G41U C71A	4.06e-05 ± 2e-05
A6U C8G G44C A53G	< 1e-05
A12C U46A C71A	6.86e-05 ± 2.4e-05
U31C C34U U69C	< 1e-05
G38U U45A C71A	< 1e-05
U49A G51A G62U	< 1e-05
C16U A39U U46C A64G C71G	9.88e-05 ± 3.4e-05
C8G G9A A14U U31G A39C U47A A64G C70U	< 1e-05
G38C U57A G63U	< 1e-05
A6G G40A G41C	< 1e-05
C10A G66A C68A	5.96e-05 ± 2.6e-05
C10U U31G U49A G62U	< 1e-05
G13U A53C	9.93e-05 ± 1.9e-05
C58U C61G G66U	6.41e-05 ± 2.3e-05
G13C A33C U47C A64U C70A	< 1e-05
C10G U47G G51A	< 1e-05
G13U C16U A39U A53G	0.000359 ± 0.00012
C16G G40U G41U	< 1e-05

Variant	self-cleavage kobs at 2500 uM GlcN6P [s⁻¹]
G9A U30A	< 1e-05
G7U U31C G43A	< 1e-05
G26U G41C	0.000123 ± 3.4e-05
G9U G63C G66U C70A	< 1e-05
A14U G29U C67G	6.46e-05 ± 2.8e-05
A15C C34G U57A	< 1e-05
A6U C10A C70A	0.000332 ± 0.00011
C10U G35U G43C	< 1e-05
C10A A12C G51U	< 1e-05
U45C U56C G63A	< 1e-05
U31C A33U U46A U57C C70U C71G	< 1e-05
C10G G44U C71A	< 1e-05
A6U C50G U55G A64G C67U	0.000132 ± 3.6e-05
A15C A33C C61U G66A	< 1e-05
C11G G35C U49G	< 1e-05
A14C U54G C58G C68U	4.09e-05 ± 1.3e-05
G37C G41U A48C	< 1e-05
G13U U47A C71G	5.89e-05 ± 1.7e-05
U31C G41C U45A A52G C61G	< 1e-05
G41A G63U C70U	< 1e-05

Variants of: B1
Experiment: self-cleavage kobs at 10000 uM GlcN6P; higher = faster cleavage; RNA array
Details: with glucosamine-6-phosphate
Procedure, shortened: as §1

Variant	self-cleavage kobs at 10000 uM GlcN6P [s⁻¹]
C11G G35C U49G	< 1e-05
A14C U54G C58G C68U	4.43e-05 ± 2e-05
G41A G63U C70U	< 1e-05
